Source: paper doi:10.1101/2020.02.12.945170, “Regulated unbinding of ZAP70 at the T cell receptor by kinetic avidity” (bioRxiv, 2020)
Values belong to the binder of their own block, whether it stands above or below them. Square brackets hold non-standard residues; d marks the D form. Ends that are not written are not given here. * marks the point of attachment. Biotin = O=C1N[C@H]2[C@H](CS[C@H]2CCCCC(=O)*)N1; pY = N[C@@H](Cc1ccc(OP(=O)(O)O)cc1)C(=O)O

Key:
[1] = molecular target: T1, ZAP70 tSH2-GFP (tandem SH2 domains of human ZAP70, amino acids 1-264, with C-terminal GFP) (human, UniProt P43403 1-264); assay: single particle tracking by TIRF microscopy; biotinylated ITAM3 peptides immobilised on coverslips coated with poly-L-lysine-PEG-biotin and streptavidin; ZAP70 tSH2-GFP or tSH2-Halo-Alexa647 at 200 nM in PBS/BSA with 1 mM DTT; 37°C; distributions of binding times fitted with exponentials (slow phase of a two-phase decay for the biphosphorylated peptide); conditions: both partners purified
T1 construct: tandem SH2 domains of human ZAP70 (Zeta-chain-associated protein kinase 70), amino acids 1-264; Cloned into pET21 between NdeI and NotI; source: E. coli BL21 (DE3), purified (Ni2+-NTA, Sephacryl S-200 size exclusion); not shown: GFP, C-terminal, kept
T1 sequence (looked up): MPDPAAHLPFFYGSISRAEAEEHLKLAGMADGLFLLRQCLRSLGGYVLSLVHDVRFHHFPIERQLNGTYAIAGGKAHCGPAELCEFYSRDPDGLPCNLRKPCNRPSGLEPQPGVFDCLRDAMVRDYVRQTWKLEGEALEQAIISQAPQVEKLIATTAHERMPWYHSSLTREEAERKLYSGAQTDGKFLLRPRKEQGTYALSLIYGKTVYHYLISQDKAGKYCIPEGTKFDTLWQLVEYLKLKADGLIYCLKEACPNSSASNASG

[2] = molecular target: T1, ZAP70 tSH2-GFP (tandem SH2 domains of …); assay: SPR; Biacore S200, 37°C, HBS-EP (10 mM HEPES pH 7.4, 150 mM NaCl, 1 mM EDTA, 0.005% Tween P20), 50 µl/min; biotinylated peptides or Avi-CD3ζ ITAM3 immobilised on streptavidin-coupled CM5 chips, ZAP70 tSH2-GFP injected; 1:1 binding model, 'effective' constants for the biphosphorylated peptide; on Avi-CD3ζ ITAM3 also ABA injections of 500 nM ZAP70 with CD45 cytoplasmic domain; conditions: both partners purified

koff [1]: 11.4 ± 0.011 s⁻¹
B1: ITAM3 N (N-monophosphorylated CD3ζ ITAM3 peptide) (peptide)
peptide: Biotin-GKGHDLL[pY]QGLSTATKDTYDALHMQ
notes: peptide derived from the membrane-distal ITAM of CD3ζ (ITAM3); also called ITAM N; monophosphorylated ITAM3 N; source: synthetic peptide; bought: PeptideSynthetics (>95% pure)

koff [1]: 4.75 ± 0.14 s⁻¹
B2: ITAM3 C (C-monophosphorylated CD3ζ ITAM3 peptide) (peptide)
peptide: Biotin-GKGHDLLYQGLSTATKDT[pY]DALHMQ
notes: peptide derived from the membrane-distal ITAM of CD3ζ (ITAM3); also called ITAM C; monophosphorylated ITAM3 C; source: synthetic peptide; bought: PeptideSynthetics (>95% pure)

Kd [2]: 96 nM
koff [2]: 0.227 s⁻¹
kon [2]: 1.89e+06 M⁻¹ s⁻¹
koff [1]: 0.368 ± 0.011 s⁻¹
B3: ITAM3 NC (biphosphorylated CD3ζ ITAM3 peptide) (peptide)
peptide: Biotin-GKGHDLL[pY]QGLSTATKDT[pY]DALHMQ
notes: peptide derived from the membrane-distal ITAM of CD3ζ (ITAM3); also called ITAM NC; biphosphorylated ITAM3; source: synthetic peptide; bought: PeptideSynthetics (>95% pure)
